Data as given in publication PMC12116771.

Columns and labels:
[1] = system: Scd6 (His-Scd6-FLAG), arginine-methylated in vitro by Hmt1 (Saccharomyces cerevisiae); assay: EMSA; conditions: EMSA: 10 mM Tris pH 8, 50 mM NaCl, 0.05% NP-40, 6% glycerol, 1 mM DTT, 2 ug/ml BSA, 0.5 ug/ml tRNA, 30 C 30 min; 2.5% agarose, 1x MOPS, EtBr
[2] = system: Scd6 (His-Scd6-FLAG, unmethylated) (Saccharomyces cerevisiae); assay: EMSA; conditions: EMSA: 10 mM Tris pH 8, 50 mM NaCl, 0.05% NP-40, 6% glycerol, 1 mM DTT, 2 ug/ml BSA, 0.5 ug/ml tRNA, 30 C 30 min; 2.5% agarose, 1x MOPS, EtBr

SRS2 5'UTR 200-mer RNA
Kd [1]: 2.7 µM
Kd [2]: 2.86 µM
